One molecule from patent CN110028578A can be followed below.

Test [1] deals with A/Guangdong/17SF003/2016 H7N9 HA extracellular domain 11-505 (H3 numbering) with C-terminal T4 trime (Influenza A virus A/Guangdong/17SF003/2016 H7N9). Description: BLI, biotinylated HA on streptavidin probe, antibody in solution. On the technique in general: Biolayer interferometry detects binding as a change in optical thickness at a sensor tip.
Test [2] deals with A/Shanghai/2/2013 H7N9 HA extracellular domain 11-505 (H3 numbering) with C-terminal T4 trimerisatio (Influenza A virus A/Shanghai/2/2013 H7N9). The test is described as above.

B1: P52E03 IgG (antibody, V domains shown)
VH: QVQLVQSGGGLVQPGRSLRLSCAASGFTFDDYAMHWVRQAPGKGLEWVSGISWNSGSIGYADSVKGRFTISRDNAKNSLYLQMNSLRAEDTALYYCAKGLNSSGWYVYFDYWGQGTLVTVSS
VL: EIVLTQSPGTLSLSPGERATLSCRASQTVARNYLAWYQQKPGQAPRLLMYDPSSRPAGIPDRFSGSGSGTDFTLTISRLEPEDSAVYFCQQYGSPPLTFGGGTKIEIKR
By Kd is commonly meant the free concentration of one partner at which half of the binding sites on the other are occupied at equilibrium, for simple one-to-one binding. With B1, the figures for the Kd in test [1] and in test [2] were 10.5 nM and 157 nM, respectively.
